The supplement of paper PMC11246515
± gives the standard deviation of the averaged measurements.

Assay: total protein half-life in vivo (active degradation + dilution); higher = more stable protein
[1] = E. coli NCM3722 delta-clpP delta-lon delta-hslV, growth: N-lim chemostat, doubling time 6 h
[2] = E. coli NCM3722 delta-clpP, growth: N-lim chemostat, doubling time 6 h
[3] = E. coli NCM3722 delta-hslV, growth: N-lim chemostat, doubling time 6 h
[4] = E. coli NCM3722 delta-lon, growth: N-lim chemostat, doubling time 6 h
[5] = E. coli NCM3722 delta-smpB, growth: N-lim chemostat, doubling time 6 h
[6] = wild type E. coli NCM3722, growth: C-lim chemostat, doubling time 3 h
[7] = wild type E. coli NCM3722, growth: C-lim chemostat, doubling time 6 h
[8] = wild type E. coli NCM3722, growth: C-lim chemostat, doubling time 12 h
[9] = wild type E. coli NCM3722, growth: N-lim chemostat, doubling time 6 h
[10] = wild type E. coli NCM3722, growth: N-lim chemostat, doubling time 12 h
[11] = wild type E. coli NCM3722, growth: P-lim chemostat, doubling time 6 h
[12] = wild type E. coli NCM3722, growth: P-lim chemostat, doubling time 12 h

Sequence	total protein half-life in vivo [1] [h]	total protein half-life in vivo [2] [h]	total protein half-life in vivo [3] [h]	total protein half-life in vivo [4] [h]	total protein half-life in vivo [5] [h]	total protein half-life in vivo [6] [h]	total protein half-life in vivo [7] [h]	total protein half-life in vivo [8] [h]	total protein half-life in vivo [9] [h]	total protein half-life in vivo [10] [h]	total protein half-life in vivo [11] [h]	total protein half-life in vivo [12] [h]
MSKKIAVLITDEFEDSEFTSPADEFRKAGHEVITIEKQAGKTVKGKKGEASVTIDKSIDEVTPAEFDALLLPGGHSPDYLRGDNRFVTFTRDFVNSGKPVFAICHGPQLLISADVIRGRKLTAVKPIIIDVKNAGAEFYDQEVVVDKDQLVTSRTPDDLPAFNREALRLLGA	6.07 ± 1.3	4.34 ± 0.18	5.59 ± 1.4	5.74 ± 0.21	4.51 ± 0.087	3.22 ± 0.3	5.32 ± 0.083	9.27 ± 0.35	4.72 ± 0.18	7.76 ± 0.18	5.12 ± 0.29	10.6 ± 1.1
MSKKYIIGIDGGSQSTKVVMYDLEGNVVCEGKGLLQPMHTPDADTAEHPDDDLWASLCFAGHDLMSQFAGNKEDIVGIGLGSIRCCRALLKADGTPAAPLISWQDARVTRPYEHTNPDVAYVTSFSGYLTHRLTGEFKDNIANYFGQWPVDYKSWAWSEDAAVMDKFNIPRHMLFDVQMPGTVLGHITPQAALATHFPAGLPVVCTTSDKPVEALGAGLLDDETAVISLGTYIALMMNGKALPKDPVAYWPIMSSIPQTLLYEGYGIRKGMWTVSWLRDMLGESLIQDARAQDLSPEDLLNKKASCVPPGCNGLMTVLDWLTNPWEPYKRGIMIGFDSSMDYAWIYRSILESVALTLKNNYDNMCNEMNHFAKHVIITGGGSNSDLFMQIFADVFNLPARRNAINGCASLGAAINTAVGLGLYPDYATAVDNMVRVKDIFIPIESNAKRYDAMNKGIFKDLTKHTDVILKKSYEVMHGELGNVDSIQSWSNA	2.5					2.855 ± 0.0047	4.03 ± 0.54	8.14 ± 1.2				2.92
MSKPFKLNSAFKPSGDQPEAIRRLEEGLEDGLAHQTLLGVTGSGKTFTIANVIADLQRPTMVLAPNKTLAAQLYGEMKEFFPENAVEYFVSYYDYYQPEAYVPSSDTFIEKDASVNEHIEQMRLSATKAMLERRDVVVVASVSAIYGLGDPDLYLKMMLHLTVGMIIDQRAILRRLAELQYARNDQAFQRGTFRVRGEVIDIFPAESDDIALRVELFDEEVERLSLFDPLTGQIVSTIPRFTIYPKTHYVTPRERIVQAMEEIKEELAARRKVLLENNKLLEEQRLTQRTQFDLEMMNELGYCSGIENYSRFLSGRGPGEPPPTLFDYLPADGLLVVDESHVTIPQIGGMYRGDRARKETLVEYGFRLPSALDNRPLKFEEFEALAPQTIYVSATPGNYELEKSGGDVVDQVVRPTGLLDPIIEVRPVATQVDDLLSEIRQRAAINERVLVTTLTKRMAEDLTEYLEEHGERVRYLHSDIDTVERMEIIRDLRLGEFDVLVGINLLREGLDMPEVSLVAILDADKEGFLRSERSLIQTIGRAARNVNGKAILYGDKITPSMAKAIGETERRREKQQKYNEEHGITPQGLNKKVVDILALGQNIAKTKAKGRGKSRPIVEPDNVPMDMSPKALQQKIHELEGLMMQHAQNLEFEEAAQIRDQLHQLRELFIAAS [P0A8F8]	5.26 ± 0.16	4.561 ± 0.016	2.99 ± 0.055	3.39 ± 0.18	2.85 ± 0.065	2.44 ± 0.18	4.02 ± 0.073	6.348 ± 0.01	2.96 ± 0.15	4.85 ± 0.78	3.67 ± 0.054	5.85 ± 0.49
MSKPIVMERGVKYRDADKMALIPVKNVATEREALLRKPEWMKIKLPADSTRIQGIKAAMRKNGLHSVCEEASCPNLAECFNHGTATFMILGAICTRRCPFCDVAHGRPVAPDANEPVKLAQTIADMALRYVVITSVDRDDLRDGGAQHFADCITAIREKSPQIKIETLVPDFRGRMDRALDILTATPPDVFNHNLENVPRIYRQVRPGADYNWSLKLLERFKEAHPEIPTKSGLMVGLGETNEEIIEVMRDLRRHGVTMLTLGQYLQPSRHHLPVQRYVSPDEFDEMKAEALAMGFTHAACGPFVRSSYHADLQAKGMEVK	5.22 ± 1	1.56 ± 0.071	1.64 ± 0.38	1.84 ± 0.034	1.27 ± 0.14	1.23 ± 0.056	1.93 ± 0.095	2.47 ± 0.21	1.67 ± 0.095	2.4 ± 0.28	1.74 ± 0.22	3.3 ± 0.49
MSKQLTAQAPVDPIVLGKMGSSYGIRGWLRVFSSTEDAESIFDYQPWFIQKAGQWQQVQLESWKHHNQDMIIKLKGVDDRDAANLLTNCEIVVDSSQLPQLEEGDYYWKDLMGCQVVTTEGYDLGKVVDMMETGSNDVLVIKANLKDAFGIKERLVPFLDGQVIKKVDLTTRSIEVDWDPGF [P0A7X6]	5.56 ± 0.28	3.21	3.38	4.04 ± 1.9	3.79	2.65 ± 0.43	4.72 ± 0.19	7.94 ± 0.8		5.22		3.98 ± 0.42
MSKQQIGVVGMAVMGRNLALNIESRGYTVSIFNRSREKTEEVIAENPGKKLVPYYTVKEFVESLETPRRILLMVKAGAGTDAAIDSLKPYLDKGDIIIDGGNTFFQDTIRRNRELSAEGFNFIGTGVSGGEEGALKGPSIMPGGQKEAYELVAPILTKIAAVAEDGEPCVTYIGADGAGHYVKMVHNGIEYGDMQLIAEAYSLLKGGLNLTNEELAQTFTEWNNGELSSYLIDITKDIFTKKDEDGNYLVDVILDEAANKGTGKWTSQSALDLGEPLSLITESVFARYISSLKDQRVAASKVLSGPQAQPAGDKAEFIEKVRRALYLGKIVSYAQGFSQLRAASEEYNWDLNYGEIAKIFRAGCIIRAQFLQKITDAYAENPQIANLLLAPYFKQIADDYQQALRDVVAYAVQNGIPVPTFSAAVAYYDSYRAAVLPANLIQAQRDYFGAHTYKRIDKEGVFHTEWLD	5.22 ± 0.18	4.9 ± 0.45	5 ± 0.17	5.58 ± 0.25	4.68 ± 0.083	3.21 ± 0.06	5.85 ± 0.4	10 ± 0.24	4.73 ± 0.23	8.31 ± 0.24	6.054 ± 0.042	12.9 ± 1.8
MSKRLPPLNALRVFDAAARHLSFTRAAEELFVTQAAVSHQIKSLEDFLGLKLFRRRNRSLLLTEEGQSYFLDIKEIFSQLTEATRKLQARSAKGALTVSLLPSFAIHWLVPRLSSFNSAYPGIDVRIQAVDRQEDKLADDVDVAIFYGRGNWPGLRVEKLYAEYLLPVCSPLLLTGEKPLKTPEDLAKHTLLHDASRRDWQTYTRQLGLNHINVQQGPIFSHSAMVLQAAIHGQGVALANNVMAQSEIEAGRLVCPFNDVLVSKNAFYLVCHDSQAELGKIAAFRQWILAKAAAEQEKFRFRYEQ [P0A9F6]	5.93 ± 0.27		5.94 ± 0.4		5.73 ± 0.34	3.2 ± 0.13	6.59 ± 0.7	11 ± 0.54	6.86 ± 0.45	12.1 ± 0.34	5.82 ± 0.081	13.3 ± 1.3
